Laboratory results from patent publication US20260242478A1 (published 2026).
Where no end group is shown, it is not given here.

What was measured:
PSMA Fab (006 PSMA Fab) [1] = target: T1, PSMA Fab (006 PSMA Fab) (Fab biotinylated for capture on neutravidin plates (site not given)); test: clonal phage ELISA; biotinylated PSMA Fab on neutravidin plate, wells pre-incubated with PSMA antigen as competitor; anti-M13-HRP detection
T1 construct: also called Anti-PSMA Fab; anti-PSMA Fab

PSMA Fab (006 PSMA Fab) [2] = target: T1, PSMA Fab (006 PSMA Fab); test: clonal phage ELISA; biotinylated PSMA Fab on neutravidin plate, blocking buffer alone; anti-M13-HRP detection;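 note: clonal phage applied as crude supernatants to wells preincubated with blocking buffer, binding read by ELISA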
Procedure: (§1) Clonal phage were harvested as crude supernatants and screened via standard ELISAs. […] Prior to the addition of clonal phage. wells were incubated with blocking buffer and PSMA antigen or blocking buffer alone. Without washing or aspirating, clonal phage supernatants were then added to the wells and incubated for a short time. Wells were then washed followed by detection of bound phage using a horse radish conjugated anti-M13 antibody.

PSMA Fab [3] = target: T2, PSMA Fab (biotinylated (site not stated)); test: clonal phage ELISA on PSMA Fab pre-incubated with PSMA antigen as competitor
T2 construct: Biotinylated PSMA Fab captured on neutravidin coated plates in the phage ELISA; also called Anti-PSMA Fab; 006 PSMA Fab

PSMA Fab [4] = target: T2, PSMA Fab; test: clonal phage ELISA, biotinylated PSMA Fab on neutravidin plate, anti-M13 HRP detection;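 note: crude clonal phage supernatants added to wells pretreated with blocking buffer either with or without PSMA antigen, bound phage read after washing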
Procedure: as §1

PSMA Fab (006 PSMA Fab) [5] = target: T3, PSMA Fab (006 PSMA Fab) (biotinylated (site not stated)); test: clonal phage ELISA on biotinylated anti-PSMA Fab captured on neutravidin, anti-M13-HRP detection
T3 construct: That the same Fab was used in the panning ELISA is inferred; also called Anti-PSMA Fab; anti-PSMA Fab

PSMA Fab (006 PSMA Fab) [6] = target: T3, PSMA Fab (006 PSMA Fab); test: clonal phage ELISA on captured anti-PSMA Fab pre-incubated with PSMA antigen (competitor: PSMA)
Procedure: as §1

Binder	Phage binding ELISA signal, Anti-PSMA Fab in presence of PSMA antigen (PSMA Fab (006 PSMA Fab) [1])	Phage binding ELISA signal, Anti-PSMA Fab (PSMA Fab (006 PSMA Fab) [2])	other results
VTMRCTPDWMCVGF (also called Peptide-180 library clone; not shown: pIII filament protein of the bacteriophage) [Phage-3454]	0.0737	1.74	
SPPLCVPVWMCHGF (also called Peptide-180 library clone; not shown: pIII filament protein of the bacteriophage) [Phage-3459]	0.148	1.74	
MDARCVPSWMCIGV (tested as crude clonal phage supernatant) [Phage-3479]			Phage binding ELISA signal, Anti-PSMA Fab with PSMA antigen (PSMA Fab [3]): 0.48; Phage binding ELISA signal, Anti-PSMA Fab (PSMA Fab [4]): 1.72
VVAQCVPRWMCDGF (also called Peptide-180 library clone; not shown: pIII filament protein of the bacteriophage) [Phage-3458]	0.103	1.74	
FEFRCTPEWMCRGF (also called Peptide-180 library clone; not shown: pIII filament protein of the bacteriophage) [Phage-3453]	0.0706	1.74	
MERFCIPSWMCEGL (also called Peptide-180 library clone; not shown: pIII filament protein of the bacteriophage) [Phage-3452]	0.0682	1.74	
NAIMCRPAWMCSGF (also called Peptide-180 library clone; not shown: pIII filament protein of the bacteriophage) [Phage-3460]	0.0847	1.74	
VEKMCRPLWMCHGF (also called Peptide-180 library clone; not shown: pIII filament protein of the bacteriophage) [Phage-3457]	0.0944	1.74	
VLRSCVPEWMCSGF (also called Peptide-180 library clone; not shown: pIII filament protein of the bacteriophage) [Phage-3462]	0.075	1.74	
IEALCVPDWMCRGF (also called Peptide-180 library clone; not shown: pIII filament protein of the bacteriophage) [Phage-3455]	0.0663	1.74	
HIMQCKPAWMCSGL (also called Peptide-180 library clone; not shown: pIII filament protein of the bacteriophage) [Phage-3456]	0.0654	1.74	
PLKLCIPEWMCVEL (also called Peptide-180 library clone; not shown: pIII filament protein of the bacteriophage) [Phage-3450]	0.0747	1.75	
SDKFCVPEWMCEWI (tested as crude clonal phage supernatant) [Phage-3478]			Phage binding ELISA signal, Anti-PSMA Fab with PSMA antigen (PSMA Fab [3]): 0.0588; Phage binding ELISA signal, Anti-PSMA Fab (PSMA Fab [4]): 1.72
EFIKCEPKWMCQGF (tested as crude clonal phage supernatant) [Phage-3480]			Phage binding ELISA signal, Anti-PSMA Fab with PSMA antigen (PSMA Fab [3]): 0.0826; Phage binding ELISA signal, Anti-PSMA Fab (PSMA Fab [4]): 1.72
TELLCTPRWMCEGF (also called Peptide-180 library clone; not shown: pIII filament protein of the bacteriophage) [Phage-3461]	0.163	1.74	
IEPHCVPAWMCTGF (Peptide-180 library clone, tested as clonal phage supernatant; not shown: fused to the pIII filament protein of the bacteriophage) [Phage-3433]			phage binding ELISA signal (PSMA Fab (006 PSMA Fab) [5]): 1.76; phage binding ELISA signal in the presence of PSMA (PSMA Fab (006 PSMA Fab) [6]): 0.0805
EDVRCVPAWMCNGF (cysteine pairing not given here; also: fused to pIII of bacteriophage, also called Peptide-180 library clone; not shown: pIII filament protein of the bacteriophage) [Phage-3449]	0.0724	1.75	
VSPMCRPAWMCEGL (tested as crude clonal phage supernatant) [Phage-3476]			Phage binding ELISA signal, Anti-PSMA Fab with PSMA antigen (PSMA Fab [3]): 0.0909; Phage binding ELISA signal, Anti-PSMA Fab (PSMA Fab [4]): 1.73
TINICKPQWMCIGF (also called Peptide-180 library clone; not shown: pIII filament protein of the bacteriophage) [Phage-3451]	0.0893	1.74	
VWKTCVPEWMCVGY (tested as crude clonal phage supernatant) [Phage-3477]			Phage binding ELISA signal, Anti-PSMA Fab with PSMA antigen (PSMA Fab [3]): 0.112; Phage binding ELISA signal, Anti-PSMA Fab (PSMA Fab [4]): 1.73
